Drawing on patent publication US20260356924 (published 2026), this text covers EC50 and Kd for twelve molecules.

One test concerns the target ePHF (human, UniProt P10636). Kind of test: ELISA.
The target in the next test is T1, tau peptide 413-430 (human, phosphorylation not given).
T1 chain: STGSIDMVDSPQLATLAD

Test [1] deals with T2, Tau409-426 6-phospho peptide (human, not fully specified).
T2 chain: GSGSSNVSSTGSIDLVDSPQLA
Kind of test: ELISA. In general terms: In an ELISA, binding on a coated surface is turned into a signal by an enzyme label.

A further test concerns the target T3, Tau409-426 pS422 peptide (human).
T3 chain: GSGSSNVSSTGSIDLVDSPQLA
Kind of test: ELISA.

Test [2] deals with T4, Tau409-426 pS416 pS422 peptide (human).
T4 chain: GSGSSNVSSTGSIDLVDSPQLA
Kind of test: ELISA.

Test [3] addresses T5, iPHF (human, UniProt P10636). Kind of test: SPR. A general note: In SPR one partner is held on a chip, and binding of the other changes the refractive index at the surface.
Test [4] has as its target T5, iPHF. Kind of test: BLI. For orientation: BLI is a label-free optical method that tracks binding on a fibre tip over time.
For test [5], the target named is T5, iPHF. Kind of test: SPR, KD1.
Test [6] concerns the target T5, iPHF. Kind of test: SPR, KD2.

T5 sequence (P10636 2-758): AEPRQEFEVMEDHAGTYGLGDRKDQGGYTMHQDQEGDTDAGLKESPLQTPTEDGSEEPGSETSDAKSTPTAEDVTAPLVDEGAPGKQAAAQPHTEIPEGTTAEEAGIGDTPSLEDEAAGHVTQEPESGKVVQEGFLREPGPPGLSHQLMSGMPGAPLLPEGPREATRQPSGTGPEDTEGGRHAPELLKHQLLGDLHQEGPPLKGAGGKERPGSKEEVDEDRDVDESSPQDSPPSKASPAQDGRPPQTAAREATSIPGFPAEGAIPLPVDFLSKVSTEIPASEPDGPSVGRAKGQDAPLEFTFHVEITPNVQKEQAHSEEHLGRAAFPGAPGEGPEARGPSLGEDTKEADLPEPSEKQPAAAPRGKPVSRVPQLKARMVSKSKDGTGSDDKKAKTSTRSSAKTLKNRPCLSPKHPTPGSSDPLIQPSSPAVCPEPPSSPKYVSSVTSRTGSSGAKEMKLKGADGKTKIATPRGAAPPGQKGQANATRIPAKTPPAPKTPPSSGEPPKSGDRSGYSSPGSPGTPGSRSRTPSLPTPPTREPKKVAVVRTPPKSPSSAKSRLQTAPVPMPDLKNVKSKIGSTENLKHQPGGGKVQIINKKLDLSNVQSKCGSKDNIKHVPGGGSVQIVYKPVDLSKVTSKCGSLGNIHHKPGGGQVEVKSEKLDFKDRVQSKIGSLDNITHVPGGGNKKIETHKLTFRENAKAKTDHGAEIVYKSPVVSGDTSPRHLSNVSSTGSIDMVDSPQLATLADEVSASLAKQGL
Chain of ePHF (P10636 2-758): as above

B1: V0004 (antibody, V domains shown)
VH: QVQLQQPGAELVKPGASVKLSCKASDYTFTNYWMHWVKQRPGRGLEWIGRIDPNSGGTRYNEKFKNKATLTVDKPSSTAYMHLSSLTSEDSAVYYCAGDFDVWGTGTTVTVSS
VL: DIQMTQSPASLSASVGETVTITCRASGNIHNYLAWYQQRQGKSPQLLVYNAKTLPDGVPSRFSGSGSGTQYSLKINSLQPEDFGSYCCQHFWSTPLTFGAGTKLELK
modifications: enriched paired helical filament tau, hyperphosphorylated
For B1, the EC50 in the test with ePHF amounted to 83 pM.

B2: V0024 (antibody, V domains shown)
VH: QVQLQQPGTELVKPGASVKLSCKASGYTFTRFWMHWVKQRPGQGLEWIGNINPNNGGTDNNERFKSKATLTVDRSSSTAYMQLSSLTSEDSAVYYCARGTGTGAMDYWGQGTSVTVSS
VL: DVVMTQTPLSLPVSLGDQASISCRSSQSLVHSNGNTHLYWYLQKPGQSPKLLIYRVSSRFSGVPDRFSGSGSGTDFTLKISRVEAEDLGVYFCFQGTHVPRTFGGGTKLEIK
Molecule B2 yielded a dissociation constant (Kd) with tau peptide 413-430 of 225 pM. Also, the concentration giving a half-maximal response (EC50) in test [1] came out at 222 pM; with Tau409-426 pS422 peptide it was 233 pM; in test [2], 220 pM.

B3: V0023 (antibody, V domains shown)
VH: QVQLQQPGTELVKPGASVKLSCKASGYTFTIFWMHWVKQRPGHGLEWIGKINPNNGGGDYNEKFKSKATLTVDKSSTTAYLQLSSLTSEDSAVYYCARGTGTGAMDYWGQGTSVTVSS
VL: DVVMTQTPLSLPVSLGDHASISCRSSQSLVHSNGITHLYWYLQRPGQTPKLLIYRVSNRFSGVPDRFSGSGSGTDFTLKISSVEAEDLGVYFCFQGTHVPRTFGGGTKLEIE
modifications: immunopurified paired helical filament tau, hyperphosphorylated
B3: the dissociation constant Kd in the test with iPHF [3] came to 57.8 pM; with iPHF [4], 4000 pM.

B4: V0022 (antibody, V domains shown)
VH: QVQLQQPGTELVKPGSSVNLSCKASGFTFTRYWMHWVKERPGHGLEWIGNINPNNGGTDFNEKFKNKATLTVHKSSTTVFIQLSSLTSEDSAVYYCARGTGTGAMDYWGQGTSVTVSS
VL: DVVMTQTPLSLPVSLGDQASISCRSSQSLVHNNGITYLYWYLQKPGQSPKLLIYRVSNRFSGVPDRFGGSGSGTDFTLKISRVEAEDLGVYFCFQGTHVPRTFGGGTKLEIK
modifications: enriched paired helical filament tau, hyperphosphorylated
For the molecule B4, in the test with ePHF, the concentration for a half-maximal effect (EC50) was 70 pM.

B5: V0023 (antibody, V domains shown)
VH: QVQLQQPGTELVKPGASVKLSCKASGYTFTIFWMHWVKQRPGHGLEWIGKINPNNGGGDYNEKFKSKATLTVDKSSTTAYLQLSSLTSEDSAVYYCARGTGTGAMDYWGQGTSVTVSS
VL: DVVMTQTPLSLPVSLGDHASISCRSSQSLVHSNGITHLYWYLQRPGQTPKLLIYRVSNRFSGVPDRFSGSGSGTDFTLKISSVEAEDLGVYFCFQGTHVPRTFGGGTKLEIE
Take B5: the Kd in the test with tau peptide 413-430 worked out at 207 pM. Further, the results for the half-maximal effective concentration (EC50) (in test [1]; with Tau409-426 pS422 peptide; in test [2]) were 217 pM, 234 pM and 252 pM, respectively.

B6: V0022 (antibody, V domains shown)
VH: QVQLQQPGTELVKPGSSVNLSCKASGFTFTRYWMHWVKERPGHGLEWIGNINPNNGGTDFNEKFKNKATLTVHKSSTTVFIQLSSLTSEDSAVYYCARGTGTGAMDYWGQGTSVTVSS
VL: DVVMTQTPLSLPVSLGDQASISCRSSQSLVHNNGITYLYWYLQKPGQSPKLLIYRVSNRFSGVPDRFGGSGSGTDFTLKISRVEAEDLGVYFCFQGTHVPRTFGGGTKLEIK
modifications: immunopurified paired helical filament tau, hyperphosphorylated
With B6, the Kd with iPHF [3] stood at 43.9 pM; in the test with iPHF [4] it was 300 pM.

B7: V0024 (antibody, V domains shown)
VH: QVQLQQPGTELVKPGASVKLSCKASGYTFTRFWMHWVKQRPGQGLEWIGNINPNNGGTDNNERFKSKATLTVDRSSSTAYMQLSSLTSEDSAVYYCARGTGTGAMDYWGQGTSVTVSS
VL: DVVMTQTPLSLPVSLGDQASISCRSSQSLVHSNGNTHLYWYLQKPGQSPKLLIYRVSSRFSGVPDRFSGSGSGTDFTLKISRVEAEDLGVYFCFQGTHVPRTFGGGTKLEIK
modifications: enriched paired helical filament tau, hyperphosphorylated
Turning to B7, the half-maximal effective concentration (EC50) in the test with ePHF is 125 pM.

B8: V0022 (antibody, V domains shown)
VH: QVQLQQPGTELVKPGSSVNLSCKASGFTFTRYWMHWVKERPGHGLEWIGNINPNNGGTDFNEKFKNKATLTVHKSSTTVFIQLSSLTSEDSAVYYCARGTGTGAMDYWGQGTSVTVSS
VL: DVVMTQTPLSLPVSLGDQASISCRSSQSLVHNNGITYLYWYLQKPGQSPKLLIYRVSNRFSGVPDRFGGSGSGTDFTLKISRVEAEDLGVYFCFQGTHVPRTFGGGTKLEIK
B8 yielded a Kd with tau peptide 413-430 of 306 pM. Besides, the EC50 in test [1] was 302 pM; with Tau409-426 pS422 peptide, 288 pM; in test [2], 283 pM.

B9: V0024 (antibody, V domains shown)
VH: QVQLQQPGTELVKPGASVKLSCKASGYTFTRFWMHWVKQRPGQGLEWIGNINPNNGGTDNNERFKSKATLTVDRSSSTAYMQLSSLTSEDSAVYYCARGTGTGAMDYWGQGTSVTVSS
VL: DVVMTQTPLSLPVSLGDQASISCRSSQSLVHSNGNTHLYWYLQKPGQSPKLLIYRVSSRFSGVPDRFSGSGSGTDFTLKISRVEAEDLGVYFCFQGTHVPRTFGGGTKLEIK
modifications: immunopurified paired helical filament tau, hyperphosphorylated
Regarding B9, the equilibrium dissociation constant (Kd) with iPHF [3] worked out at 124 pM; with iPHF [4], 2800 pM.

B10: V0052 (antibody, V domains shown)
VH: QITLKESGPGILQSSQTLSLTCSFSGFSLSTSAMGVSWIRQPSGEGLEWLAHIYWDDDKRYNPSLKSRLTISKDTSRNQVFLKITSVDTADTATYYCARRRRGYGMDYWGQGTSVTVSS
VL: SIVMTQTPKFLLVSAGDRVTITCKASQSVSNDVAWYQQKPGQSPKLLIYYASNRCTGVPDRFTGSGYGTDFTFTISTVQAEDLAVYFCQQDYRSPLTFGAGTKLELK
modifications: immunopurified paired helical filament tau, hyperphosphorylated
In the case of B10, the Kd worked out at 4460 pM in the test with iPHF [5], 600 pM in the test with iPHF [4] and 2640 pM in the test with iPHF [6].

B11: V0009 (antibody, V domains shown)
VH: EVQLVESGGALVQPGGSLSLSCAASGFTFTDYYMSWVRQPPGKALEWLALIRNKAKGFTTEYSASVKGRFTISRDNSQSILLFQMNDLRADDSATYYCVRDINYWGQGTTLTVSS
VL: not shown
modifications: immunopurified paired helical filament tau, hyperphosphorylated
Regarding B11, the Kd turned out to be 296 pM in the test with iPHF [3] and 200 pM with iPHF [4].

B12: V0009 (antibody, V domains shown)
VH: EVQLVESGGALVQPGGSLSLSCAASGFTFTDYYMSWVRQPPGKALEWLALIRNKAKGFTTEYSASVKGRFTISRDNSQSILLFQMNDLRADDSATYYCVRDINYWGQGTTLTVSS
VL: not shown
modifications: enriched paired helical filament tau, hyperphosphorylated
As to B12, the 50% effective concentration (EC50) with ePHF amounted to 38 pM.

One may read the EC50 as the concentration at which the effect is half-maximal. Lower therefore signals higher potency in that assay. A word on the Kd: it is the constant that tells how readily two partners part at equilibrium.
